We go through 94 variants from the supplement of paper PMC10567573.

B1: FAM164A (parent)
chain: YDPDYIQCPYCQRRFNENAADRHI
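Also: lentivirally expressed fusions sorted by FACS into six bins by GFP to DsRed ratio, PSI derived from sequencing read proportions per bin multiplied by bin number.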

Variants of B1 are the subject of the data set. The data set is described as follows: protein stability index of a GFP-peptide fusion (GPS, HEK-293T) (PSI 1-6); higher = more stable. The note with it: c terminus: a fixed tail appended.
As to YDPDYIQPPYCQRRFNENAADRHI [C8P], the protein stability index was 3.72. To YDPDYIQKPYCQRRFNENAADRHI [C8K] belongs 3.54; to YDPDYIQMPYCQRRFNENAADRHI [C8M], 3.63. For YDPDYIQNPYCQRRFNENAADRHI [C8N], the protein stability index is 3.65.

For the variant YDPDYIQVPYCQRRFNENAADRHI [C8V], the protein stability index was 3.81. On to YDPDYIQQPYCQRRFNENAADRHI [C8Q], for which the protein stability index turned out to be 3.7.

For the variant YDPDYIQEPYCQRRFNENAADRHI [C8E], the protein stability index was determined as 4.37. To YDPDYIQGPYCQRRFNENAADRHI [C8G] belongs 3.81; to YDPDYIQLPYCQRRFNENAADRHI [C8L], 3.56; to YDPDYIQHPYCQRRFNENAADRHI [C8H], 3.46.

For the variant YDPDYIQDPYCQRRFNENAADRHI [C8D], the protein stability index was 4.24. For the variant YDPDYIQFPYCQRRFNENAADRHI [C8F], the protein stability index turned out to be 3.17. As for YDPDYIQAPYCQRRFNENAADRHI [C8A], the protein stability index was found to be 3.88. For the variant YDPDYIQRPYCQRRFNENAADRHI [C8R], the protein stability index amounted to 3.12.

Regarding YDPDYIQYPYCQRRFNENAADRHI [C8Y], the protein stability index is 3.43. To YDPDYIQWPYCQRRFNENAADRHI [C8W] belongs 2.96. On to YDPDYIQSPYCQRRFNENAADRHI [C8S], for which the protein stability index was determined as 3.68. YDPDYIQIPYCQRRFNENAADRHI [C8I]: the protein stability index was found to be 3.13.

As for YDPDYIQTPYCQRRFNENAADRHI [C8T], the protein stability index stood at 4.23. With YDPVYIQCPYCQRRFNENAADRHI [D4V], the protein stability index came to 3.84. To YDPWYIQCPYCQRRFNENAADRHI [D4W] belongs 3.5; to YDPYYIQCPYCQRRFNENAADRHI [D4Y], 3.59. As for YDPTYIQCPYCQRRFNENAADRHI [D4T], the protein stability index is 4.08. For the variant YDPSYIQCPYCQRRFNENAADRHI [D4S], the protein stability index worked out at 4.49.

Consider YDPDIIQCPYCQRRFNENAADRHI [Y5I], for which the protein stability index was determined as 4.41. With YDPDAIQCPYCQRRFNENAADRHI [Y5A], the protein stability index was 4.05.

As to YDPDTIQCPYCQRRFNENAADRHI [Y5T], the protein stability index worked out at 4.14. To YDPDHIQCPYCQRRFNENAADRHI [Y5H] belongs 3.69; to YDPDEIQCPYCQRRFNENAADRHI [Y5E], 4.57; to YDPDRIQCPYCQRRFNENAADRHI [Y5R], 3.52. In the case of YDPDNIQCPYCQRRFNENAADRHI [Y5N], the protein stability index was found to be 4.11. Regarding YDPDFIQCPYCQRRFNENAADRHI [Y5F], the protein stability index turned out to be 4.07.

For the variant YDPDLIQCPYCQRRFNENAADRHI [Y5L], the protein stability index stood at 4.25. YDPDDIQCPYCQRRFNENAADRHI [Y5D]: the protein stability index was found to be 4.24. To YDPDQIQCPYCQRRFNENAADRHI [Y5Q] belongs 4.12; to YDPDCIQCPYCQRRFNENAADRHI [Y5C], 4.01. Regarding YDPDVIQCPYCQRRFNENAADRHI [Y5V], the protein stability index was found to be 4.41.

With YDPDPIQCPYCQRRFNENAADRHI [Y5P], the protein stability index turned out to be 3.84. YDPDKIQCPYCQRRFNENAADRHI [Y5K]: the protein stability index is 3.21.

Take YDPDGIQCPYCQRRFNENAADRHI [Y5G]: the protein stability index is 4.14. Consider YDPDMIQCPYCQRRFNENAADRHI [Y5M], for which the protein stability index was 4.9.

With YDPDWIQCPYCQRRFNENAADRHI [Y5W], the protein stability index was 4.68. With YDPDSIQCPYCQRRFNENAADRHI [Y5S], the protein stability index was found to be 4.37. Turning to YDPDYIYCPYCQRRFNENAADRHI [Q7Y], the protein stability index was 3.77.

On to YDPDYIRCPYCQRRFNENAADRHI [Q7R], for which the protein stability index was determined as 3.79. YDPDYIVCPYCQRRFNENAADRHI [Q7V]: the protein stability index was determined as 4.7. Regarding YDPDYIFCPYCQRRFNENAADRHI [Q7F], the protein stability index turned out to be 3.15. To YDPDYIHCPYCQRRFNENAADRHI [Q7H] belongs 2.76; to YDPDYIDCPYCQRRFNENAADRHI [Q7D], 2.64. As for YDPDYIPCPYCQRRFNENAADRHI [Q7P], the protein stability index was found to be 2.88. To YDPDYIGCPYCQRRFNENAADRHI [Q7G] belongs 2.54. For YDPDYISCPYCQRRFNENAADRHI [Q7S], the protein stability index was found to be 3.27.

For YDPDYIECPYCQRRFNENAADRHI [Q7E], the protein stability index came to 3.87.

Take YDPDYIKCPYCQRRFNENAADRHI [Q7K]: the protein stability index stood at 3.94. To YDPDYITCPYCQRRFNENAADRHI [Q7T] belongs 4.57; to YDPDYIICPYCQRRFNENAADRHI [Q7I], 4.76; to YDPDYIMCPYCQRRFNENAADRHI [Q7M], 3.33. Consider YDPDYILCPYCQRRFNENAADRHI [Q7L], for which the protein stability index is 3.48. To YDPDYINCPYCQRRFNENAADRHI [Q7N] belongs 2.89. Take YDPDYIACPYCQRRFNENAADRHI [Q7A]: the protein stability index came to 3.27. With YDPDYIWCPYCQRRFNENAADRHI [Q7W], the protein stability index amounted to 2.83. YDPDYICCPYCQRRFNENAADRHI [Q7C]: the protein stability index came out at 3.57.

In the case of YDPDYIQCIYCQRRFNENAADRHI [P9I], the protein stability index was 2.29. In the case of YDPDYIQCQYCQRRFNENAADRHI [P9Q], the protein stability index turned out to be 3.14. Consider YDPDYIQCGYCQRRFNENAADRHI [P9G], for which the protein stability index worked out at 2.54.

For YDPDYIQCHYCQRRFNENAADRHI [P9H], the protein stability index stood at 2.83. With YDPDYIQCFYCQRRFNENAADRHI [P9F], the protein stability index was 2.18. To YDPDYIQCCYCQRRFNENAADRHI [P9C] belongs 2.59; to YDPDYIQCDYCQRRFNENAADRHI [P9D], 3.09.

In the case of YDPDYIQCNYCQRRFNENAADRHI [P9N], the protein stability index came to 2.75. As to YDPDYIQCMYCQRRFNENAADRHI [P9M], the protein stability index is 2.39.

YDPDYIQCEYCQRRFNENAADRHI [P9E]: the protein stability index is 3.11.

In the case of YDPDYIQCAYCQRRFNENAADRHI [P9A], the protein stability index worked out at 2.38. Turning to YDPDYIQCLYCQRRFNENAADRHI [P9L], the protein stability index worked out at 2.09.

Take YDPDYIQCKYCQRRFNENAADRHI [P9K]: the protein stability index amounted to 2.58. Take YDPDYYQCPYCQRRFNENAADRHI [I6Y]: the protein stability index came to 3.23. For YDPDYVQCPYCQRRFNENAADRHI [I6V], the protein stability index came out at 4.14. YDPDYRQCPYCQRRFNENAADRHI [I6R]: the protein stability index worked out at 3.63. To YDPDYFQCPYCQRRFNENAADRHI [I6F] belongs 3.29; to YDPDYQQCPYCQRRFNENAADRHI [I6Q], 4.03. On to YDPDYTQCPYCQRRFNENAADRHI [I6T], for which the protein stability index amounted to 3.56. For YDPDYSQCPYCQRRFNENAADRHI [I6S], the protein stability index worked out at 3.44. As for YDPDYGQCPYCQRRFNENAADRHI [I6G], the protein stability index is 3.29. As for YDPDYAQCPYCQRRFNENAADRHI [I6A], the protein stability index came to 3.58.

In the case of YDPDYHQCPYCQRRFNENAADRHI [I6H], the protein stability index amounted to 3.71.

Consider YDPDYNQCPYCQRRFNENAADRHI [I6N], for which the protein stability index was 3.55. Consider YDPDYMQCPYCQRRFNENAADRHI [I6M], for which the protein stability index stood at 3.42. As to YDPDYKQCPYCQRRFNENAADRHI [I6K], the protein stability index turned out to be 3.71. Turning to YDPDYLQCPYCQRRFNENAADRHI [I6L], the protein stability index came out at 3.27. Turning to YDPDYWQCPYCQRRFNENAADRHI [I6W], the protein stability index came to 2.8. To YDPDYEQCPYCQRRFNENAADRHI [I6E] belongs 3.5; to YDPDYDQCPYCQRRFNENAADRHI [I6D], 3.6. As to YDPDYPQCPYCQRRFNENAADRHI [I6P], the protein stability index is 3.37. As for YDPDYCQCPYCQRRFNENAADRHI [I6C], the protein stability index was 3.7.
